Test results from patent US20240052048A1.

Target: monkey BCMA on BCMA-CHO cells (cynomolgus monkey)
Experiment: flow cytometry (MFI) on CHO cells expressing monkey BCMA; EC50 table in the figure; fit value for a flat control curve

Chain of monkey BCMA on BCMA-CHO cells (cynomolgus monkey) (chain, as listed by the source): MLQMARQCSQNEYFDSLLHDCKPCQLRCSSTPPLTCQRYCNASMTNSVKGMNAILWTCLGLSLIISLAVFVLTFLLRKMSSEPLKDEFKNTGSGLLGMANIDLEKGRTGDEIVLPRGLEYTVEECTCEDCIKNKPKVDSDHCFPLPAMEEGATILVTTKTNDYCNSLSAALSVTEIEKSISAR

EC50: 0.357 µg/mL
Substance: Irrelevant antibody
